Measurements from article PMC6061791 (Nucleic Acids Research, 2018).
One block for each binder: values may come before it.

Key:
RppH = target: T1, RppH (Escherichia coli DH5alpha, UniProt P0A776 1-176); assay: ITC
T1 sequence: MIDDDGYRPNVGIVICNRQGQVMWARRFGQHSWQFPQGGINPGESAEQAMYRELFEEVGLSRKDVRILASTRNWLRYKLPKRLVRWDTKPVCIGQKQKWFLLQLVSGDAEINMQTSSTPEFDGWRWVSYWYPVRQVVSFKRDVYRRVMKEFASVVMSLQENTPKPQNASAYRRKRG

DapF = target: T2, DapF (Escherichia coli DH5alpha, UniProt P0A6K1 1-274); assay: ITC
T2 sequence: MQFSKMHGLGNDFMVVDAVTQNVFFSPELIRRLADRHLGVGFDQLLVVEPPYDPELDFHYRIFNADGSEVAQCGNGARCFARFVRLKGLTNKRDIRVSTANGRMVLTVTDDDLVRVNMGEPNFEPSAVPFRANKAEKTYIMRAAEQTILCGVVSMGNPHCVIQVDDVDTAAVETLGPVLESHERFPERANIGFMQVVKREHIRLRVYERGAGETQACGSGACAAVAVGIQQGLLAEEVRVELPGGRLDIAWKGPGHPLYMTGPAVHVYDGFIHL

RppH;DapF = target: T3, RppH;DapF (Escherichia coli DH5alpha;Escherichia …, UniProt P0A776;P0A6K1 1-176;1-274, |); assay: ITC
T3 sequence 1: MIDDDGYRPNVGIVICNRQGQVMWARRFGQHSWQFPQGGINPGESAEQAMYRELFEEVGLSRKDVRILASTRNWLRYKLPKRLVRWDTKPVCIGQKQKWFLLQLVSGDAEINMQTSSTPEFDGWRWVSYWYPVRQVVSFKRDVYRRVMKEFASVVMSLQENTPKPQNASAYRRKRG
T3 sequence 2: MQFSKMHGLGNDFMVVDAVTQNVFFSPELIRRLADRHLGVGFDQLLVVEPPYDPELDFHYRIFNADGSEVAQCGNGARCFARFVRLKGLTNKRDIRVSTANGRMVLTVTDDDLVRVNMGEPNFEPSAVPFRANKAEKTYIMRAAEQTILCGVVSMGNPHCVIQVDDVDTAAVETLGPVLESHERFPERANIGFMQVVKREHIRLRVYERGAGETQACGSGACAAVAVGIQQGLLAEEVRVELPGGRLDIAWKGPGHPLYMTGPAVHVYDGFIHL

[1] = target: T4, DapF (diaminopimelate epimerase), wild type, N-terminal 6×His tag (Escherichia coli, UniProt P0A6K1 1-274); assay: ITC
T4 sequence (looked up): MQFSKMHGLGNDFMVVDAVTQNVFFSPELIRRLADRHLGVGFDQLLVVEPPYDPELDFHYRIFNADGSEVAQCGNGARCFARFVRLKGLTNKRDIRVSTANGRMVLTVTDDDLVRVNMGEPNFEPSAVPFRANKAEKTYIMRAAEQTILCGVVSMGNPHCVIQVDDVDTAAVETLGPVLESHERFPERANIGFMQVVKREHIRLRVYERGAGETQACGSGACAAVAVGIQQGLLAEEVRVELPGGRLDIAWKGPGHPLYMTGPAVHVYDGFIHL

[2] = target: T5, DapF (L89A), N-terminal 6×His tag (Escherichia coli, UniProt P0A6K1 1-274, L89A); assay: ITC
T5 sequence (looked up): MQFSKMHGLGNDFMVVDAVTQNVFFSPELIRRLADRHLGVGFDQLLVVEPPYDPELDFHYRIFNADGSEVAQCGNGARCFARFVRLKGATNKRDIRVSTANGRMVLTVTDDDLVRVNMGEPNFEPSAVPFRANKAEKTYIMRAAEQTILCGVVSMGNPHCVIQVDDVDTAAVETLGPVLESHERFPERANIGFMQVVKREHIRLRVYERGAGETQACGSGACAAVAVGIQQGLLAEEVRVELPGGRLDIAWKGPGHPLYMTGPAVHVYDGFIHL

[3] = target: T6, DapF (N22A), N-terminal 6×His tag (Escherichia coli, UniProt P0A6K1 1-274, N22A); assay: ITC
T6 sequence (looked up): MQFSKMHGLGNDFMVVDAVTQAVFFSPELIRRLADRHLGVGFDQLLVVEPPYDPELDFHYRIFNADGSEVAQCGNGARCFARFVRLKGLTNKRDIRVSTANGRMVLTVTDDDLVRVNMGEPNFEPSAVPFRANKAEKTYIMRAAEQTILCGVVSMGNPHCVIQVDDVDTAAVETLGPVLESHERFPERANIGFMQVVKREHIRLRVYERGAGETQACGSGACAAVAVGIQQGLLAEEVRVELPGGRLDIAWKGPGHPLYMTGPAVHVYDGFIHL

[4] = target: T7, DapF (T20A), N-terminal 6×His tag (Escherichia coli, UniProt P0A6K1 1-274, T20A); assay: ITC
T7 sequence (looked up): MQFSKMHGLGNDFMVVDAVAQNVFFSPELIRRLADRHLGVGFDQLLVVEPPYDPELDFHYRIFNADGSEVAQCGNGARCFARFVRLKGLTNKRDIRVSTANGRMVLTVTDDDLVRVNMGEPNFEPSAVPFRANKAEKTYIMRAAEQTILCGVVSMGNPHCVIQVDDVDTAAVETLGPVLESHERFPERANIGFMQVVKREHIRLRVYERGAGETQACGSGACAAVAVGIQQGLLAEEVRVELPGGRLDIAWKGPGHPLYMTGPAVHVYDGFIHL

[5] = target: T4, DapF (diaminopimelate epimerase), wild …; assay: AUC
[6] = target: T8, DapF (Y268A), N-terminal 6×His tag (Escherichia coli, UniProt P0A6K1 1-274, Y268A); assay: AUC
T8 sequence (looked up): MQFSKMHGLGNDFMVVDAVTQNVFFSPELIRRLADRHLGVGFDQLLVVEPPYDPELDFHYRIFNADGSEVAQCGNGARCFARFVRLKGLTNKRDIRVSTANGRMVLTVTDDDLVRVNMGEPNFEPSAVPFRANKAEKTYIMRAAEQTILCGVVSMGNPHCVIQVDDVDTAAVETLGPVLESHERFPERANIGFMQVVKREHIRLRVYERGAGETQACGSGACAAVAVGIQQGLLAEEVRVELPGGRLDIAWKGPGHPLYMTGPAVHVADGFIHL

Binder: AGAACAAC (ssRNA, 5'-triphosphate) [8 nt RNA pppAGAACAAC]
binding result (RppH): binds
binding result (DapF): no binding
Kd (RppH;DapF): ~120000 nM

B1: RppH (RNA pyrophosphohydrolase), wild type, GST tag removed (enzyme, Escherichia coli, UniProt P0A776 1-176, looked up)
chain: MIDDDGYRPNVGIVICNRQGQVMWARRFGQHSWQFPQGGINPGESAEQAMYRELFEEVGLSRKDVRILASTRNWLRYKLPKRLVRWDTKPVCIGQKQKWFLLQLVSGDAEINMQTSSTPEFDGWRWVSYWYPVRQVVSFKRDVYRRVMKEFASVVMSLQENTPKPQNASAYRRKRG
Kd [1]: 0.8 ± 0.4 nM
dH [1]: -13 ± 0.1 kcal⋅mol^-1
stoichiometry N [1]: 0.95
Kd [2]: 5.2 ± 0.9 nM
dH [2]: -10.4 ± 0.1 kcal⋅mol^-1
stoichiometry N [2]: 1.06
Kd [3]: 0.3 ± 0.1 nM
dH [3]: -16.4 ± 0.1 kcal⋅mol^-1
stoichiometry N [3]: 0.96
Kd [4]: 4.2 ± 1.8 nM
dH [4]: -14.4 ± 0.2 kcal⋅mol^-1
stoichiometry N [4]: 0.97
stoichiometry N [5]: 1 RppH per DapF (2:2 heterotetramer)
stoichiometry N [6]: 1 RppH per DapF (1:1 heterodimer)

B4: RppH (D142A), GST tag removed (enzyme, Escherichia coli, UniProt P0A776 1-176, looked up)
chain: MIDDDGYRPNVGIVICNRQGQVMWARRFGQHSWQFPQGGINPGESAEQAMYRELFEEVGLSRKDVRILASTRNWLRYKLPKRLVRWDTKPVCIGQKQKWFLLQLVSGDAEINMQTSSTPEFDGWRWVSYWYPVRQVVSFKRAVYRRVMKEFASVVMSLQENTPKPQNASAYRRKRG
Kd [1]: 4.8 ± 1.8 nM
dH [1]: -11 ± 0.2 kcal⋅mol^-1
stoichiometry N [1]: 1.05

Continued, values first:

Kd [1]: 2.3 ± 1 nM
dH [1]: -14.6 ± 0.1 kcal⋅mol^-1
stoichiometry N [1]: 1.01
B2: RppH (R145A), GST tag removed (enzyme, Escherichia coli, UniProt P0A776 1-176, looked up)
chain: MIDDDGYRPNVGIVICNRQGQVMWARRFGQHSWQFPQGGINPGESAEQAMYRELFEEVGLSRKDVRILASTRNWLRYKLPKRLVRWDTKPVCIGQKQKWFLLQLVSGDAEINMQTSSTPEFDGWRWVSYWYPVRQVVSFKRDVYARVMKEFASVVMSLQENTPKPQNASAYRRKRG

Kd [1]: 12.8 ± 6 nM
dH [1]: -12.5 ± 0.3 kcal⋅mol^-1
stoichiometry N [1]: 0.85
B3: RppH (S128A), GST tag removed (enzyme, Escherichia coli, UniProt P0A776 1-176, looked up)
chain: MIDDDGYRPNVGIVICNRQGQVMWARRFGQHSWQFPQGGINPGESAEQAMYRELFEEVGLSRKDVRILASTRNWLRYKLPKRLVRWDTKPVCIGQKQKWFLLQLVSGDAEINMQTSSTPEFDGWRWVAYWYPVRQVVSFKRDVYRRVMKEFASVVMSLQENTPKPQNASAYRRKRG
